From US12630600B2 (MEDIMMUNE LIMITED, priority 2022, dated 2026)
Starred links: 1 amine or outer side, 2 acyl side, 3 side chain; linkers in the order of their positions; H or OH if unused. Non-standard residues stand in square brackets, D forms with d. Groups on a side chain read outwards from the residue. No end group written: not given here. *: point of attachment. C20 diacid = O=C(O)CCCCCCCCCCCCCCCCCCC(=O)*; C18 diacid = O=C(O)CCCCCCCCCCCCCCCCC(=O)*; γGlu = O=C(O)[C@H](CCC(=O)[*:2])N[*:1]; αMeF = C[C@](N)(Cc1ccccc1)C(=O)O; AEEA = NCCOCCOCC(=O)O; Aib = CC(C)(N)C(=O)O

B1: Peptide 151 (peptide)
peptide: H[Aib]QGTFTSDVSK[αMeF]LDSK([AEEA-AEEA-γGlu-C20 diacid])RAQDFVRWLL[Aib]TE-OH
modifications: N-terminus assumed
SMILES: CC(C)C[C@H](NC(=O)[C@H](Cc1c[nH]c2ccccc12)NC(=O)[C@H](CCCNC(=N)N)NC(=O)[C@@H](NC(=O)[C@H](Cc1ccccc1)NC(=O)[C@H](CC(=O)O)NC(=O)[C@H](CCC(N)=O)NC(=O)[C@H](C)NC(=O)[C@H](CCCNC(=N)N)NC(=O)[C@H](CCCCNC(=O)COCCOCCNC(=O)COCCOCCNC(=O)CC[C@H](NC(=O)CCCCCCCCCCCCCCCCCCC(=O)O)C(=O)O)NC(=O)[C@H](CO)NC(=O)[C@H](CC(=O)O)NC(=O)[C@H](CC(C)C)NC(=O)[C@](C)(Cc1ccccc1)NC(=O)[C@H](CCCCN)NC(=O)[C@H](CO)NC(=O)[C@@H](NC(=O)[C@H](CC(=O)O)NC(=O)[C@H](CO)NC(=O)[C@@H](NC(=O)[C@H](Cc1ccccc1)NC(=O)[C@@H](NC(=O)CNC(=O)[C@H](CCC(N)=O)NC(=O)C(C)(C)NC(=O)[C@@H](N)Cc1c[nH]cn1)[C@@H](C)O)[C@@H](C)O)C(C)C)C(C)C)C(=O)N[C@@H](CC(C)C)C(=O)NC(C)(C)C(=O)N[C@H](C(=O)N[C@@H](CCC(=O)O)C(=O)O)[C@@H](C)O
B2: Peptide 150 (peptide)
peptide: H[Aib]QGTFTSDVSK[αMeF]LDSK([AEEA-AEEA-γGlu-C18 diacid])RAQDFVQWLL[Aib]TE-OH
modifications: not fully specified
B3: Peptide 4 (peptide)
peptide: HSQGS[αMeF]TSDVSK[αMeF]LDSK([AEEA-AEEA-γGlu-C18 diacid])AAQDFVQWIANT-NH2
modifications: N-terminus assumed
SMILES: CC[C@H](C)[C@H](NC(=O)[C@H](Cc1c[nH]c2ccccc12)NC(=O)[C@H](CCC(N)=O)NC(=O)[C@@H](NC(=O)[C@H](Cc1ccccc1)NC(=O)[C@H](CC(=O)O)NC(=O)[C@H](CCC(N)=O)NC(=O)[C@H](C)NC(=O)[C@H](C)NC(=O)[C@H](CCCCNC(=O)COCCOCCNC(=O)COCCOCCNC(=O)CC[C@H](NC(=O)CCCCCCCCCCCCCCCCC(=O)O)C(=O)O)NC(=O)[C@H](CO)NC(=O)[C@H](CC(=O)O)NC(=O)[C@H](CC(C)C)NC(=O)[C@](C)(Cc1ccccc1)NC(=O)[C@H](CCCCN)NC(=O)[C@H](CO)NC(=O)[C@@H](NC(=O)[C@H](CC(=O)O)NC(=O)[C@H](CO)NC(=O)[C@@H](NC(=O)[C@](C)(Cc1ccccc1)NC(=O)[C@H](CO)NC(=O)CNC(=O)[C@H](CCC(N)=O)NC(=O)[C@H](CO)NC(=O)[C@@H](N)Cc1c[nH]cn1)[C@@H](C)O)C(C)C)C(C)C)C(=O)N[C@@H](C)C(=O)N[C@@H](CC(N)=O)C(=O)N[C@H](C(N)=O)[C@@H](C)O

What was measured:
human GLP-1 receptor = human GLP-1 receptor (human, UniProt P43220); assay: cell-based or functional assay
human glucagon receptor = human glucagon receptor (human, UniProt P47871); assay: cell-based or functional assay

Row | Binder | cAMP production, hGLP-1R EC50 (pM) (human GLP-1 receptor) | cAMP production, hGluc-R EC50 (pM) (human glucagon receptor)
1 | B1 | 111 | 178
2 | B2 | 166 | 355
3 | B3 | 240 | 1170
